B2: recombinant extracellular domain of the human IL-2 receptor beta subunit (receptor, UniProt P14784 27-240, looked up)
chain: AVNGTSQFTCFYNSRANISCVWSQDGALQDTSCQVHAWPDRRRWNQTCELLPVSQASWACNLILGAPDSQKLTTVDIVTLRVLCREGVRWRVMAIQDFKPFENLRLMAPISLQVVHVETHRCNISWEISQASHYFERHLEFEARTLSPGHTWEEAPLLTLKQKQEWICLETLTPDTQYEFQVRVKPLQGEFTTWSPWSQPLAFRTKPAALGKDT
notes: extracellular domain; also called beta chain of the IL-2 receptor; beta subunit of the receptor

Assays:
[1] = biological target: B2; assay: phage ELISA; ratio of the signal on the beta subunit extracellular domain to the signal on anti-c-myc antibody 9E10 (display level); anti-M13 antibody-HRP
Experimental: The binding capacity of the new variants to the extracellular domain of the IL-2 receptor beta subunit was assessed by ELISA. For this purpose, plates were coated with the recombinant extracellular domain of the IL-2 receptor beta subunit. The bound phages were detected with an anti-M13 antibody conjugated to horseradish peroxidase. Simultaneously, their binding to a plate coated with the monoclonal antibody 9E10 directed against the c-myc peptide that is fused to the proteins presented on the phages was determined to establish the display levels of each. The ratio between the signals obtained with both coating molecules (relative reactivity) is plotted as a measure of the intrinsic binding capacity of each variant to the beta-subunit.

[2] = biological target: T1, IL-2/Fc (K35E) fusion protein (human, UniProt P60568 21-153); assay: BIAcore (SPR); format not stated
T1 construct: mature; IL-2 fused to the N-terminal end of human IgG1 Fc; also called fusion protein derived from the original IL-2; human IL-2/Fc fusion protein

[3] = biological target: T2, H9/Fc (K35E) fusion protein (human, UniProt P60568 21-153); assay: BIAcore (SPR); format not stated
T2 construct: mature; Same format as the other Fc fusions; also called fusion protein based on the H9 superkine
T2 sequence (P60568 other isoform, or with tags, fused parts or gaps K35E K35E limits assumed): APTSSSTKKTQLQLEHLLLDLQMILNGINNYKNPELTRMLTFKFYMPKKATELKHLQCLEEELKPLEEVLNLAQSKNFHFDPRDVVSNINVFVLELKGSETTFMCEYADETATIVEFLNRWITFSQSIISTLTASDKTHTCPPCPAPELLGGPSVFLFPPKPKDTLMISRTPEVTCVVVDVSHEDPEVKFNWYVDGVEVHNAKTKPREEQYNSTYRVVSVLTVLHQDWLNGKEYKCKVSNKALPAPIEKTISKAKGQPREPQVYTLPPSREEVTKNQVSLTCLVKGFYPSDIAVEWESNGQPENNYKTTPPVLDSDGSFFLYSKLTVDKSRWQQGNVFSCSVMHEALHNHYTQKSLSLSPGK

T1 sequence (P60568 other isoform, or with tags, fused parts or gaps K35E K35E limits assumed): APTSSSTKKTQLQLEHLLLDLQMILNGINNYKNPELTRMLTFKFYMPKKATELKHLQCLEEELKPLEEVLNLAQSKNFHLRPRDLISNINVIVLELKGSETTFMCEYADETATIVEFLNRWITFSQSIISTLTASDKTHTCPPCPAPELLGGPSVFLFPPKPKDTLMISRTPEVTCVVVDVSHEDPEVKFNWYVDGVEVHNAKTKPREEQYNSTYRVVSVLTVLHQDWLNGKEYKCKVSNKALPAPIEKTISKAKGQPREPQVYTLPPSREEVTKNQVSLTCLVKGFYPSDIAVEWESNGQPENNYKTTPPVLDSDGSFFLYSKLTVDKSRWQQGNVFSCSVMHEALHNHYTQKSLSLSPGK

B1: IL-2 variant 1A displayed on phage (S2 library) (other, not shown: large carriers; small tags and cut ends)
chain: TSSSTKKTQLQLEHLLLDLQMILNGINNYKNPKLTRMLTFKFYMPKKATELKHLQCLEEELKPLEEVLNLAQSKNFHFDPHDVVENINVLLLELKGSETTFMCEYADETATIVEFLNRWITFSQSIISTLT
notes: Substitutions are derived from the segment name printed for the fusion protein built from this clone
- binding result [1]: binds

Binder: B2
- Kd [2]: 106 nM
- koff [2]: 0.00326 s⁻¹
- kon [2]: 30800 M⁻¹ s⁻¹
- Kd [3]: 4.09 nM
- koff [3]: 0.000395 s⁻¹
- kon [3]: 97200 M⁻¹ s⁻¹

Source: patent publication US20250179139A1 (CENTRO DE INMUNOLOG A MOLECULAR, published 2025)
